# Reference: PMC9482650, “Quantitative fragmentomics allow affinity mapping of interactomes” (Nature Communications, 2022)
# Key:
# Experiment in all cases: holdup assay
# Set-up in all cases: key: below the threshold = too weak to quantify, mostly under pKd 3.1 to 4
# GOPC, Q9HD26 = target: GOPC, Q9HD26
# LRRC7, Q96NW7 = target: T1, LRRC7, Q96NW7
# T1 sequence (Q96NW7 1440-1537, limits assumed, looked up): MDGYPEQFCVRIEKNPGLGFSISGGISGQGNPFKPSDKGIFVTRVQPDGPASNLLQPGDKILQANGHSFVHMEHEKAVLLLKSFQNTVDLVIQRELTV
# PICK1, Q9NRD5 = target: PICK1, Q9NRD5
# PICK1, Q9NRD5, sequence (Q9NRD5 17-115): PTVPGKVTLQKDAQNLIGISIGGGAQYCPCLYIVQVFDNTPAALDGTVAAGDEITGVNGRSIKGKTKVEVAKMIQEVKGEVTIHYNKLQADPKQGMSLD
# SCRIB_3, Q14160 = target: SCRIB_3, Q14160
# SCRIB_3, Q14160, sequence (Q14160 999-1103): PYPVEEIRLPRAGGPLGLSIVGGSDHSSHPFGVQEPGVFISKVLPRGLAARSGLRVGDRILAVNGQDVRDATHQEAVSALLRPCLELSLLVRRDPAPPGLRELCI
# LDB3, O75112 = target: LDB3, O75112
# LDB3, O75112, sequence (O75112 1-94): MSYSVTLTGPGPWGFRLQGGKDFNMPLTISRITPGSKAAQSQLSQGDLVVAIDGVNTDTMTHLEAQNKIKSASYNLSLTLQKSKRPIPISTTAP
# GRID2IP_2, A4D2P6 = target: GRID2IP_2, A4D2P6
# GRID2IP_2, A4D2P6, sequence (A4D2P6 272-370): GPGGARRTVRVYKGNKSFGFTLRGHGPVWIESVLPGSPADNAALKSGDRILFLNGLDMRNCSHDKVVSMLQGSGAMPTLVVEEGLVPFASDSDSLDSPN
# LIN7B, Q9HAP6 = target: T2, LIN7B, Q9HAP6
# T2 sequence (Q9HAP6 88-185, limits assumed, looked up): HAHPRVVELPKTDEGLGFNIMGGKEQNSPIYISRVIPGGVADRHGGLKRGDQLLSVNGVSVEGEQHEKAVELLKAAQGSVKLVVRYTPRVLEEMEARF
# DLG4_3, P78352 = target: DLG4_3, P78352
# DLG4_3, P78352, sequence (P78352 306-403): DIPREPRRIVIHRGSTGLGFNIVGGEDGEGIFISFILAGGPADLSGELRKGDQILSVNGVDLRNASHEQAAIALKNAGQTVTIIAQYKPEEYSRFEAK
# LNX2_2, Q8N448 = target: T3, LNX2_2, Q8N448
# T3 sequence (Q8N448 334-432, limits assumed, looked up): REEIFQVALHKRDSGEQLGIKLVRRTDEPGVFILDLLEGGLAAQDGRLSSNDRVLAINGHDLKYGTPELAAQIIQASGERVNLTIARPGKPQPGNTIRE
# Inadl_10, Q8NI35 = target: Inadl_10, Q8NI35
# Inadl_10, Q8NI35, sequence (Q8NI35 1673-1763): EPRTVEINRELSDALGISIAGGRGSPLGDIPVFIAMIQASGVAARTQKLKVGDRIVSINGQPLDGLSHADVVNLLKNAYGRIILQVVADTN
# NHERF3_3, Q5T2W1 = target: T4, NHERF3_3, Q5T2W1
# T4 sequence (Q5T2W1 238-333, limits assumed, looked up): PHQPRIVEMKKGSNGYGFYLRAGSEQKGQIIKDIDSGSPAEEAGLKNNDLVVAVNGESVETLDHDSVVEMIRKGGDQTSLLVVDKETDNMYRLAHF
# LAP2, Q96RT1 = target: LAP2, Q96RT1
# LAP2, Q96RT1, sequence (Q96RT1 other isoform, or with tags, fused parts or gaps): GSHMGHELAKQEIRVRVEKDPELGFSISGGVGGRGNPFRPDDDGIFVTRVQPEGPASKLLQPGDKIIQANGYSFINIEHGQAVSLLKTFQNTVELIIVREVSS
# SNTG1, Q9NSN8 = target: T5, SNTG1, Q9NSN8
# T5 sequence (Q9NSN8 52-150, limits assumed, looked up): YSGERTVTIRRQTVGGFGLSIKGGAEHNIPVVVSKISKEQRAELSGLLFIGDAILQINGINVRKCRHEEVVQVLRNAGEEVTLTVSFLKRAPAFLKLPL
# PCLO, Q9Y6V0 = target: T6, PCLO, Q9Y6V0
# T6 sequence (Q9Y6V0 4491-4600, limits assumed, looked up): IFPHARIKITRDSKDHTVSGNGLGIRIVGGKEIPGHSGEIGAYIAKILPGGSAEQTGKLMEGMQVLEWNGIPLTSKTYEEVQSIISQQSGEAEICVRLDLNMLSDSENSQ
# GRIP2_5, Q9C0E4 = target: GRIP2_5, Q9C0E4
# GRIP2_5, Q9C0E4, sequence (Q9C0E4 544-642): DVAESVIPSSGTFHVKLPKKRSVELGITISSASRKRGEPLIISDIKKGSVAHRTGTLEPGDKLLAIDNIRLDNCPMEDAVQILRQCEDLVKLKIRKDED
# IL16_3, Q14005 = target: IL16_3, Q14005
# IL16_3, Q14005, sequence (Q14005 1107-1207): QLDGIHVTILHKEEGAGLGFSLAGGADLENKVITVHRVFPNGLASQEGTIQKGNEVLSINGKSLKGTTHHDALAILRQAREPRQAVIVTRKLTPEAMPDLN
# NHERF4_2, Q86UT5 = target: NHERF4_2, Q86UT5
# NHERF4_2, Q86UT5, sequence (Q86UT5 220-308): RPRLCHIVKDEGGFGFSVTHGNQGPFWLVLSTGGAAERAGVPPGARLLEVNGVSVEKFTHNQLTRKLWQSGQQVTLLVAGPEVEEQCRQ
# NHERF3_1, Q5T2W1 = target: T7, NHERF3_1, Q5T2W1
# T7 sequence (Q5T2W1 4-100, limits assumed, looked up): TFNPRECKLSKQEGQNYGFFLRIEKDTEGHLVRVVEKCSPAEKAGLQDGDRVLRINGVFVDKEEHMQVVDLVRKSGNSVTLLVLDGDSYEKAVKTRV
# SNX27, Q96L92 = target: SNX27, Q96L92
# CARD11, Q9BXL7 = target: T8, CARD11, Q9BXL7
# T8 sequence (Q9BXL7 662-765, limits assumed, looked up): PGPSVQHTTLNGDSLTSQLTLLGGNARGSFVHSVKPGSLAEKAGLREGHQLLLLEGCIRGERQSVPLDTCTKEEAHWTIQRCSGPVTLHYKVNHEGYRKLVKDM
# TJP2_1, Q9UDY2 = target: TJP2_1, Q9UDY2
# TJP2_1, Q9UDY2, sequence (Q9UDY2 24-128): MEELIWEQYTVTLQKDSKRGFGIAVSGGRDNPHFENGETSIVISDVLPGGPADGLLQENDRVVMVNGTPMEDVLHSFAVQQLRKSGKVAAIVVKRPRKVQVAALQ
# DLG5_1, Q8TDM6 = target: DLG5_1, Q8TDM6
# DLG5_1, Q8TDM6, sequence (Q8TDM6 617-713): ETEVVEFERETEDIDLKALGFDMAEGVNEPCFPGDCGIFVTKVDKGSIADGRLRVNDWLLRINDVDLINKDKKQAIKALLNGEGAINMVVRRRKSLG
# SCRIB_2, Q14160 = target: SCRIB_2, Q14160
# SCRIB_2, Q14160, sequence (Q14160 857-960): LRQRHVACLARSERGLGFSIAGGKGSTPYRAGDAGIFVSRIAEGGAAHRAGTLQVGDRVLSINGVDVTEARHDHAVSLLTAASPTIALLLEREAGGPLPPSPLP
# NHERF4_1, Q86UT5-2 = target: NHERF4_1, Q86UT5-2
# NHERF4_1, Q86UT5-2, sequence (Q86UT5 other isoform, or with tags, fused parts or gaps): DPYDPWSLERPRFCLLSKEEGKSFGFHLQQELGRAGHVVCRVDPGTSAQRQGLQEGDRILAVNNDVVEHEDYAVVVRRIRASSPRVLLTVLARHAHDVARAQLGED
# Inadl_5, Q8NI35 = target: Inadl_5, Q8NI35
# Inadl_5, Q8NI35, sequence (Q8NI35 673-780): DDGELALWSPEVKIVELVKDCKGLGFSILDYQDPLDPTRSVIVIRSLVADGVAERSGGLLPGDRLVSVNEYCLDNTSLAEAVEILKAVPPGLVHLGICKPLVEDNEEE
# GRIP2_7, Q9C0E4 = target: GRIP2_7, Q9C0E4
# GRIP2_7, Q9C0E4, sequence (Q9C0E4 934-1023): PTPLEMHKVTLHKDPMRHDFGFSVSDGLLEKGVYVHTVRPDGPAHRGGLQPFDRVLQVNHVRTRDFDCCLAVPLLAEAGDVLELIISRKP
# MAGI2_4, Q86UL8 = target: MAGI2_4, Q86UL8
# MAGI2_4, Q86UL8, sequence (Q86UL8 772-865): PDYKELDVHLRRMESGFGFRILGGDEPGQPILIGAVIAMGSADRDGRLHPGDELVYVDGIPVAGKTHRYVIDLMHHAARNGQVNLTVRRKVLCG
# HTRA3, P83110 = target: T9, HTRA3, P83110
# T9 sequence (P83110 354-453, limits assumed, looked up): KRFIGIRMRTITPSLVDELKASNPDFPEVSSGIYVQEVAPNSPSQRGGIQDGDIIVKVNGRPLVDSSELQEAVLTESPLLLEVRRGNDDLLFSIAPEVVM
# [1] = plain residues with an end cap or a label only (N-terminal biotin on a linker: ahx)
# [2] = plain residues with an end cap or a label only (N-terminal biotin on a linker: ado-ado)
binder,measurement,setting,value
"TESNLQTSSC [CGN, Q9P2M7]",pKd,"GOPC, Q9HD26; [1]",below the threshold
same,pKd,"LRRC7, Q96NW7; [1]",below the threshold
same,pKd,"PICK1, Q9NRD5; [1]",below the threshold
same,pKd,"SCRIB_3, Q14160; [1]",below the threshold
same,pKd,"LDB3, O75112; [1]",below the threshold
same,pKd,"GRID2IP_2, A4D2P6; [1]",3.8
same,pKd,"LIN7B, Q9HAP6; [1]",below the threshold
same,pKd,"DLG4_3, P78352; [1]",below the threshold
same,pKd,"LNX2_2, Q8N448; [1]",below the threshold
same,pKd,"Inadl_10, Q8NI35; [1]",3.6
same,pKd,"NHERF3_3, Q5T2W1; [1]",below the threshold
same,pKd,"LAP2, Q96RT1; [1]",below the threshold
same,pKd,"SNTG1, Q9NSN8; [1]",below the threshold
same,pKd,"PCLO, Q9Y6V0; [1]",below the threshold
same,pKd,"GRIP2_5, Q9C0E4; [1]",below the threshold
same,pKd,"IL16_3, Q14005; [1]",3.53
same,pKd,"NHERF4_2, Q86UT5; [1]",below the threshold
same,pKd,"NHERF3_1, Q5T2W1; [1]",below the threshold
same,pKd,"SNX27, Q96L92; [1]",4.65
same,pKd,"CARD11, Q9BXL7; [1]",below the threshold
same,pKd,"TJP2_1, Q9UDY2; [1]",below the threshold
same,pKd,"DLG5_1, Q8TDM6; [1]",below the threshold
same,pKd,"SCRIB_2, Q14160; [1]",below the threshold
same,pKd,"NHERF4_1, Q86UT5-2; [1]",3.62
same,pKd,"Inadl_5, Q8NI35; [1]",below the threshold
same,pKd,"GRIP2_7, Q9C0E4; [1]",below the threshold
same,pKd,"MAGI2_4, Q86UL8; [1]",3.53
same,pKd,"HTRA3, P83110; [1]",below the threshold
"RSSGGDDFWF [KCNV1, Q6PIU1]",pKd,"GOPC, Q9HD26; [2]",below the threshold
same,pKd,"LRRC7, Q96NW7; [2]",below the threshold
same,pKd,"PICK1, Q9NRD5; [2]",4.01
same,pKd,"SCRIB_3, Q14160; [2]",4.29
same,pKd,"LDB3, O75112; [2]",below the threshold
same,pKd,"GRID2IP_2, A4D2P6; [2]",below the threshold
same,pKd,"LIN7B, Q9HAP6; [2]",3.7
same,pKd,"DLG4_3, P78352; [2]",below the threshold
same,pKd,"LNX2_2, Q8N448; [2]",3.8
same,pKd,"Inadl_10, Q8NI35; [2]",below the threshold
same,pKd,"NHERF3_3, Q5T2W1; [2]",below the threshold
same,pKd,"LAP2, Q96RT1; [2]",below the threshold
same,pKd,"SNTG1, Q9NSN8; [2]",below the threshold
same,pKd,"PCLO, Q9Y6V0; [2]",below the threshold
same,pKd,"GRIP2_5, Q9C0E4; [2]",below the threshold
same,pKd,"IL16_3, Q14005; [2]",below the threshold
same,pKd,"NHERF4_2, Q86UT5; [2]",below the threshold
same,pKd,"NHERF3_1, Q5T2W1; [2]",4.08
same,pKd,"SNX27, Q96L92; [2]",4.15
same,pKd,"CARD11, Q9BXL7; [2]",below the threshold
same,pKd,"TJP2_1, Q9UDY2; [2]",below the threshold
same,pKd,"DLG5_1, Q8TDM6; [2]",below the threshold
same,pKd,"SCRIB_2, Q14160; [2]",below the threshold
same,pKd,"NHERF4_1, Q86UT5-2; [2]",below the threshold
same,pKd,"Inadl_5, Q8NI35; [2]",below the threshold
same,pKd,"GRIP2_7, Q9C0E4; [2]",4.59
same,pKd,"MAGI2_4, Q86UL8; [2]",4.13
same,pKd,"HTRA3, P83110; [2]",4.37
"APSRKLNTEI [TIAM1, Q13009]",pKd,"GOPC, Q9HD26; [1]",below the threshold
same,pKd,"LRRC7, Q96NW7; [1]",below the threshold
same,pKd,"PICK1, Q9NRD5; [1]",below the threshold
same,pKd,"SCRIB_3, Q14160; [1]",below the threshold
same,pKd,"LDB3, O75112; [1]",below the threshold
same,pKd,"GRID2IP_2, A4D2P6; [1]",below the threshold
same,pKd,"LIN7B, Q9HAP6; [1]",below the threshold
same,pKd,"DLG4_3, P78352; [1]",below the threshold
same,pKd,"LNX2_2, Q8N448; [1]",below the threshold
same,pKd,"Inadl_10, Q8NI35; [1]",below the threshold
same,pKd,"NHERF3_3, Q5T2W1; [1]",below the threshold
same,pKd,"LAP2, Q96RT1; [1]",below the threshold
same,pKd,"SNTG1, Q9NSN8; [1]",below the threshold
same,pKd,"PCLO, Q9Y6V0; [1]",below the threshold
same,pKd,"GRIP2_5, Q9C0E4; [1]",below the threshold
same,pKd,"IL16_3, Q14005; [1]",below the threshold
same,pKd,"NHERF4_2, Q86UT5; [1]",below the threshold
same,pKd,"NHERF3_1, Q5T2W1; [1]",below the threshold
same,pKd,"SNX27, Q96L92; [1]",below the threshold
same,pKd,"CARD11, Q9BXL7; [1]",below the threshold
same,pKd,"TJP2_1, Q9UDY2; [1]",below the threshold
same,pKd,"DLG5_1, Q8TDM6; [1]",below the threshold
same,pKd,"SCRIB_2, Q14160; [1]",below the threshold
same,pKd,"NHERF4_1, Q86UT5-2; [1]",below the threshold
same,pKd,"Inadl_5, Q8NI35; [1]",below the threshold
same,pKd,"GRIP2_7, Q9C0E4; [1]",below the threshold
same,pKd,"MAGI2_4, Q86UL8; [1]",below the threshold
same,pKd,"HTRA3, P83110; [1]",below the threshold
"DGVNEKVSCV [HTR2A, P28223]",pKd,"GOPC, Q9HD26; [2]",below the threshold
same,pKd,"LRRC7, Q96NW7; [2]",below the threshold
same,pKd,"PICK1, Q9NRD5; [2]",below the threshold
same,pKd,"SCRIB_3, Q14160; [2]",3.97
same,pKd,"LDB3, O75112; [2]",below the threshold
same,pKd,"GRID2IP_2, A4D2P6; [2]",4.54
same,pKd,"LIN7B, Q9HAP6; [2]",3.79
same,pKd,"DLG4_3, P78352; [2]",below the threshold
same,pKd,"LNX2_2, Q8N448; [2]",4.42
same,pKd,"Inadl_10, Q8NI35; [2]",below the threshold
same,pKd,"NHERF3_3, Q5T2W1; [2]",below the threshold
same,pKd,"LAP2, Q96RT1; [2]",below the threshold
same,pKd,"SNTG1, Q9NSN8; [2]",4.33
same,pKd,"PCLO, Q9Y6V0; [2]",below the threshold
same,pKd,"GRIP2_5, Q9C0E4; [2]",below the threshold
same,pKd,"IL16_3, Q14005; [2]",below the threshold
same,pKd,"NHERF4_2, Q86UT5; [2]",below the threshold
same,pKd,"NHERF3_1, Q5T2W1; [2]",below the threshold
same,pKd,"SNX27, Q96L92; [2]",5.15
same,pKd,"CARD11, Q9BXL7; [2]",below the threshold
same,pKd,"TJP2_1, Q9UDY2; [2]",3.82
same,pKd,"DLG5_1, Q8TDM6; [2]",below the threshold
same,pKd,"SCRIB_2, Q14160; [2]",3.64
same,pKd,"NHERF4_1, Q86UT5-2; [2]",below the threshold
same,pKd,"Inadl_5, Q8NI35; [2]",below the threshold
same,pKd,"GRIP2_7, Q9C0E4; [2]",below the threshold
same,pKd,"MAGI2_4, Q86UL8; [2]",3.72
same,pKd,"HTRA3, P83110; [2]",3.94
"EPQYQPGENL [SRC, P12931]",pKd,"GOPC, Q9HD26; [2]",below the threshold
same,pKd,"LRRC7, Q96NW7; [2]",below the threshold
same,pKd,"PICK1, Q9NRD5; [2]",below the threshold
same,pKd,"SCRIB_3, Q14160; [2]",3.71
same,pKd,"LDB3, O75112; [2]",below the threshold
same,pKd,"GRID2IP_2, A4D2P6; [2]",below the threshold
same,pKd,"LIN7B, Q9HAP6; [2]",below the threshold
same,pKd,"DLG4_3, P78352; [2]",below the threshold
same,pKd,"LNX2_2, Q8N448; [2]",below the threshold
same,pKd,"Inadl_10, Q8NI35; [2]",below the threshold
same,pKd,"NHERF3_3, Q5T2W1; [2]",below the threshold
same,pKd,"LAP2, Q96RT1; [2]",below the threshold
same,pKd,"SNTG1, Q9NSN8; [2]",below the threshold
same,pKd,"PCLO, Q9Y6V0; [2]",below the threshold
same,pKd,"GRIP2_5, Q9C0E4; [2]",below the threshold
same,pKd,"IL16_3, Q14005; [2]",below the threshold
same,pKd,"NHERF4_2, Q86UT5; [2]",below the threshold
same,pKd,"NHERF3_1, Q5T2W1; [2]",3.82
same,pKd,"SNX27, Q96L92; [2]",3.79
same,pKd,"CARD11, Q9BXL7; [2]",below the threshold
same,pKd,"TJP2_1, Q9UDY2; [2]",below the threshold
same,pKd,"DLG5_1, Q8TDM6; [2]",below the threshold
same,pKd,"SCRIB_2, Q14160; [2]",below the threshold
same,pKd,"NHERF4_1, Q86UT5-2; [2]",3.59
same,pKd,"Inadl_5, Q8NI35; [2]",below the threshold
same,pKd,"GRIP2_7, Q9C0E4; [2]",below the threshold
same,pKd,"MAGI2_4, Q86UL8; [2]",below the threshold
same,pKd,"HTRA3, P83110; [2]",below the threshold
